This note sets out measurements from patent US5663064, “Ribozymes with RNA protein binding site” (University of Vermont).

The target of data set [1] is T1, R17 coat protein (R17cp) (bacteriophage R17, UniProt P69170 P69170:1-129). Briefly: filter; also gel shift; TMS or TMK buffer, 25 or 37 C; Kd said to agree with earlier studies but value not given. The note with it: chain copies: 2; hairpin with bulged A. On the procedure:
The reaction was initiated by adding R17 coat protein at various concentrations (0.01 nM to 1 μM). After at least 20 minutes of incubation at the desired temperature, 450 μl of the reaction mixture was filtered through pre-soaked nitrocellulose filter (Millipore-HAWP 024–0,45 μM). The amount of complex retained by the filter was determined by liquid scintillation counting. The amount of input RNA was determined by spotting a 20 μl aliquot of the reaction mixture on a filter. The fraction bound by the filter was plotted as a function of protein concentration. As previously described (Carey et al., supra; Schneider et al., 1992 J. Mol. Biol. 228, 862), the maximum amount of fraction complexed varied between 40 and 100% depending on the RNA preparation. Results were normalized to 100% of retention at saturation for purposes of calculations and to compare different experiments. […] Dissociation constant (Kd) values were then obtained from a non-linear least-square fit using sigmaplot software (Jandel Scientific). Standard error was calculated from the fit of the observed curve to the theoretical one (reported by the sigmaplot software).
A filter binding assay (Carey, et al., 1983 Biochemistry 22, 2601) is used to confirm the results from gel-shift assay described above. Referring to FIG. 9, the R17cp binds to HpR17 as well as it binds to its genuine binding site (R17bs). […]

Data set [2] concerns the target T1, R17 coat protein (R17cp). Briefly: filter; null mutant negative control; no specific complex in gel shift. The note with it: chain copies: 2; hairpin. The method, then: Association constants were determined by filter-binding assays (Carey et al., 1983 Biochemistry 22, 2601). Trace amount of labeled RNA (15–32 fmoles) was heat denatured and renatured in 500 μl of T.M.S buffer (40 mM Tris-HCl pH 8, 12 mM MgCl_2 and 2 mM spermidine) or TMK buffer (40 mM Tris-Acetate pH 8, 10 mM Mg.Acetate, 80 mM KCl). The reaction was initiated by adding R17 coat protein at various concentrations (0.01 nM to 1 μM). After at least 20 minutes of incubation at the desired temperature, 450 μl of the reaction mixture was filtered through pre-soaked nitrocellulose filter (Millipore-HAWP 024–0,45 μM). The amount of complex retained by the filter was determined by liquid scintillation counting. The amount of input RNA was determined by spotting a 20 μl aliquot of the reaction mixture on a filter. The fraction bound by the filter was plotted as a function of protein concentration. As previously described (Carey et al., supra; Schneider et al., 1992 J. Mol. Biol. 228, 862), the maximum amount of fraction complexed varied between 40 and 100% depending on the RNA preparation. Results were normalized to 100% of retention at saturation for purposes of calculations and to compare different experiments. […] Standard error was calculated from the fit of the observed curve to the theoretical one (reported by the sigmaplot software). […]
A general note: A gel shift assay detects complexes by their altered migration in electrophoresis.

T1 sequence (P69170 whole entry, one chain of several): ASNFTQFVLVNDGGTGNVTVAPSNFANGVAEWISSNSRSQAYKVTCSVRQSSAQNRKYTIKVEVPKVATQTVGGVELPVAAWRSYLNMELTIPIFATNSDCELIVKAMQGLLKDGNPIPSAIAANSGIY

In the case of GAAACAUGAGGAUCACCCAUGUUU (ssRNA) [R17bs], in data set [1], the binding result was “binds”.

As to GAAACAUGGGAUCACCCAUGUUU (ssRNA) [R17deltaA8], the binding result in data set [2] is given as “no binding”.
